Measurements from article PMC9909426.

Target: Orange Carotenoid Protein variant OCP-W288_BTA (Synechocystis sp. PCC 6803 OCP with Trp288 replaced by 3-benzothienyl-L-alanine) (Synechocystis sp. PCC 6803) (UniProt P74102)
Experiment: SEC; preparative SEC, Superdex 200 Increase 10/300, after IMAC and HIC; pink, earlier eluting fraction OCP-W288_BTA(P)

stoichiometry N: 2
Substance: Orange Carotenoid Protein variant OCP-W288_BTA (Synechocystis sp. PCC 6803 OCP with Trp288 replaced by 3-benzothienyl-L-alanine) (from UniProt P74102 1-317) (natural protein)
